Measurements reported in the supplement of paper PMC12042874.
± gives the uncertainty stated by the source.

Assay: amyloid nucleation score (Sup35N fusion, yeast selection) (log enrichment); library NNK1; higher = more nucleation; inactive = no reads after selection
Method in brief: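 Using DiMSum, nucleation scores were taken as the log enrichment of output over input reads, centred on the mode score of non-aggregating sequences. The input and output reads came from Illumina sequencing of plasmid inserts, with sequences under 100 input reads excluded. The yeast were psi-negative, expressed Sup35N fused to peptides of 20 random codons, were induced with 100 μM copper sulfate for 24 hours, and were grown 7 days at 30°C on medium lacking adenine and uracil.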

| Substance | amyloid nucleation score |
| --- | --- |
| CALVYGWTEHDV | 1.44 ± 0.64 |
| CANGLLRDLVQAI | 0.547 ± 0.61 |
| CARSVCKSQYSSMSMPYLIV | 0.782 ± 0.39 |
| CCLHSAFSNNARILFMALRS | 0.861 ± 0.84 |
| CDGDASAYDTRGTALSA | inactive |
| CDGPCALQS | 0.263 ± 0.51 |
| CDKKWIASQSMVGRRTMV | inactive |
| CEGCSWFSCSF | 0.749 ± 0.48 |
| CEGKGWFANITYSDFLLIMR | -0.462 ± 0.97 |
| CEMKASGLKYVHRFNSIPVM | 0.984 ± 0.57 |
| CEMMDNPFLLLRVKGSKVRS | inactive |
| CERLKT | 0.784 ± 0.35 |
| CERQNYVP | 0.326 ± 1.2 |
| CFFASVHPLCYRGVSGVGVF | -1.28 ± 2.1 |
| CFFRTDGLDTPYGAYLVRSF | 2.31 ± 0.2 |
| CFLIVHLNSRSDTCHEGSEC | -0.081 ± 0.54 |
| CFLVGSWTPI | 0.215 ± 0.76 |
| CFPTWYLLLDCWVQFPAHTK | 2.56 ± 0.16 |
| CFSDKS | -0.621 ± 0.42 |
| CFVHLLGIIYLSLDRNYCRE | 0.272 ± 0.57 |
| CGAVHGGGWSAIYLNGYLGW | 0.186 ± 0.95 |
| CGFVEMTSRSKIHSLICWPG | 1.53 ± 0.44 |
| CGGYSTTCSLTWEILASNRL | 0.675 ± 1 |
| CHRRMMNEWSGLKNVLFKKG | 0.791 ± 0.97 |
| CHSHDVCRGMLT | -0.135 ± 0.38 |

| Substance | amyloid nucleation score |
| --- | --- |
| CIDMFNLLNLKHASYWVVVY | -0.563 ± 0.52 |
| CIEDVCCS | -0.016 ± 0.23 |
| CILAGGSSVGLNCVGMSTCG | 0.438 ± 0.8 |
| CIRREFSHDESDVNRSTWFI | 0.391 ± 0.71 |
| CISGD | 0.429 ± 0.37 |
| CIWSSNLFSRSSTSDWRLDT | -0.109 ± 0.29 |
| CKKELFKT | 0.77 ± 0.66 |
| CKMWTE | 0.405 ± 0.75 |
| CKTGGFYRSVGRTTRFCHVE | -0.321 ± 0.39 |
| CLAGGYSGNAEGMIIETRAK | -0.171 ± 1.7 |
| CLCDAISYSGIIKDVDKVCE | 0.875 ± 0.93 |
| CLCMSC | 0.108 ± 0.43 |
| CLDNWLGGHNSLSSYSG | 0.538 ± 0.37 |
| CLFWDSCYRKLLTIYDNM | -0.941 ± 0.63 |
| CLGDTWWNMNKSGTEVVCPV | 0.858 ± 1.1 |
| CLISP | inactive |
| CLMLAGRFIC | -0.422 ± 0.56 |
| CLNSDALDHW | 1.17 ± 0.42 |
| CLNTMWRKPVEAREM | 0.189 ± 1 |
| CLPQLTDQPPKFHRLQFFCV | 0.348 ± 0.4 |
| CLRGLNAPLYNRCFAGILLG | -0.6 ± 0.36 |
| CLSNM | inactive |
| CLVFWETECSA | -0.323 ± 0.29 |
| CLVYSTYIDGQTLAKTF | -0.761 ± 1.2 |
| CLYAIKLCM | 6.82 ± 0.043 |

| Substance | amyloid nucleation score |
| --- | --- |
| CMAGRNSFKLYMRRFNEENY | inactive |
| CMRFAPMMHANCHVKARWHR | 0.696 ± 0.6 |
| CMRHHMSQHCIPGGPRCRGA | -0.912 ± 0.65 |
| CMSIRWSCYPLNNQVVATEV | 0.044 ± 0.29 |
| CMSRSYYYTSPKDPKEFNC | 0.56 ± 0.33 |
| CNFMVSYRISFMLRLIQYYV | -0.938 ± 0.31 |
| CNKNNCWCYHCSYQVWHALY | 0.381 ± 0.42 |
| CNLNAGGKRWADRT | 0.3 ± 0.85 |
| CNSFCGMHCGNV | 0.238 ± 0.62 |
| CNSRNITT | -0.345 ± 0.67 |
| CNSVDVVLISATACYSWSTL | 0.552 ± 0.48 |
| CNYWRNRRWF | 1.48 ± 0.33 |
| CPDLGYACWYIINRIPSTWC | -1.3 ± 1.2 |
| CPGNIIYTFPIDVPKHG | 0.641 ± 0.79 |
| CPLEDLIKRLNHLYVH | 0.21 ± 0.6 |
| CPVCNTESTCRYPRVGKWDT | 3.01 ± 0.17 |
| CQPLLSMYLVHYTA | 0.116 ± 0.2 |
| CQSLPKFLHANVKYNSVSGA | -0.16 ± 0.24 |
| CRAQGFDASSHYCYLFLALS | -0.427 ± 1.4 |
| CRGNDKVLPKIGATNCWLST | inactive |
| CRIIPLYRKFLKHLTCHYIQ | -0.092 ± 0.25 |
| CRISTGNGVI | inactive |
| CRLGNEKGRLKSWQNRSNIC | -0.22 ± 0.59 |
| CRLSNGV | -0.392 ± 0.31 |
| CRMGMLYEISQC | 0.743 ± 0.76 |

| Substance | amyloid nucleation score |
| --- | --- |
| CRSSVFKYVPVSNIFDYFSI | 0.921 ± 0.84 |
| CRSVVGVGSCRTGPEEGVYP | -0.106 ± 1.7 |
| CRTHDKCKDSGHSRLNGYSG | -0.299 ± 0.51 |
| CSCACCVELHQL | 6.611 ± 0.062 |
| CSDFITLSMFV | 0.99 ± 0.66 |
| CSFLELLWDVGRCSASQQCM | -0.943 ± 1.7 |
| CSLSSRNDLGCIMVLLYAWI | 0.605 ± 0.33 |
| CSLTCVSWHMGSF | 2.15 ± 0.32 |
| CSRANRKGECG | -0.62 ± 1.3 |
| CSRTRRSHSIECACCKYIFA | -0.343 ± 0.47 |
| CSRVVWLVIRLLEMWIEPRA | 0.815 ± 0.73 |
| CSSMQFVACLNSAYGSSTAM | 0.027 ± 0.76 |
| CSTRGFGGD | -0.921 ± 1.1 |
| CSYGARGIWATESIVANKSV | inactive |
| CSYPYGQSEDCGSRSGRGYA | 0.877 ± 1 |
| CTADWLRDPRVGVRGPEGGG | 0.273 ± 0.3 |
| CTAWNVS | -0.657 ± 1.7 |
| CTAYYMLGGGRNLNHPLMWV | 0.497 ± 0.61 |
| CTDVNSQ | 0.033 ± 0.9 |
| CTFTY | 0.053 ± 1.1 |
| CTGIWSLLSCTTFRHIATVV | -0.469 ± 1.7 |
| CTGPMD | 0.055 ± 0.57 |
| CTGSCVRRVCGGFIEADIRY | -0.28 ± 0.41 |
| CTLSYCWWMAQYPDISRLIT | -0.362 ± 0.74 |
| CTSDHSSFAKFLLLTCCLLL | 0.841 ± 0.92 |

| Substance | amyloid nucleation score |
| --- | --- |
| CTTLGLQPFRDWRFAGKLAR | 0.049 ± 1.1 |
| CTYVLWRGMKGFR | 0.05 ± 0.88 |
| CVCMVRYGVRAHR | 0.469 ± 0.64 |
| CVDRRV | 0.203 ± 0.56 |
| CVFMRATLQK | 3.25 ± 0.15 |
| CVKASLMMWVQFYIDSY | inactive |
| CVLCDGYFKSERLLNGWVM | -0.641 ± 0.52 |
| CVMNLYGGMPHAGRWTGF | 4.33 ± 0.11 |
| CVSHNVILRK | 2.4 ± 0.092 |
| CVTLCSNPWDQKRFICIYRH | -0.021 ± 0.55 |
| CVVESMSIIMRRCSLS | -0.861 ± 0.42 |
| CVVFAVKGCAGGWTRFMLDN | -0.268 ± 0.4 |
| CWASIEVLRRSDYGGFCHSV | 0.826 ± 0.6 |
| CWNVLNCMHAFRCGPMNQRR | 0.831 ± 0.58 |
| CWPRG | 0.326 ± 0.55 |
| CWTCTSRVEWSPV | -0.374 ± 0.74 |
| CWTLSDVLFDNNLFTMNMGP | -0.291 ± 0.67 |
| CYAFLDWAYVSEG | 0.114 ± 0.28 |
| CYCLNAGVSMADHSVPPRVF | 0.912 ± 0.71 |
| CYCSEWNWRCNTELDVLFQS | 0.818 ± 0.4 |
| CYGGWVYLLRIALCGEDSVI | 0.58 ± 0.58 |
| CYHQFGV | inactive |
| CYKLGYGFVHFSAIMVNIIS | -1.22 ± 1.7 |
| CYLKGYA | 0.853 ± 0.52 |
| CYMKNKLSFIM | inactive |

| Substance | amyloid nucleation score |
| --- | --- |
| CYRIDGSYYQLSCSYVYVRV | -0.837 ± 1.1 |
| CYVLRSRSCLVFLMVYRGRV | 4.95 ± 0.073 |
| DASGNYWGWKLWGDQGERGY | inactive |
| DASLQWYVDSLKFCWV | 0.18 ± 0.36 |
| DASLVGLQLSHHSILFHCSM | 0.021 ± 1.2 |
| DCCGFNFYWISPRFHLRECL | 0.831 ± 0.27 |
| DCMIVGLHHIKVRHSLFVRW | -0.128 ± 0.33 |
| DCRFNRGGFNNVR | 0.514 ± 0.31 |
| DCYNLKQWRSCCDLAVASGG | 0.24 ± 0.88 |
| DDCESFEMRAFM | 1 ± 0.55 |
| DETQKPRVLCMLLLSKSTEN | 0.558 ± 0.34 |
| DFGFLF | 0.851 ± 0.37 |
| DFLDNVFVTSECHVN | 0.255 ± 0.6 |
| DFLMMSVLHHNNVSYS | 1.52 ± 0.66 |
| DFVMGYYVELWFMYASL | 0.4 ± 0.21 |
| DFWSYDDVVFGRC | 1.3 ± 0.6 |
| DGHGRYA | inactive |
| DGIRSWENSMVIYGI | -0.091 ± 0.4 |
| DGKHWTDYLVMY | 1.5 ± 0.47 |
| DGLKFGFEINPAVRQ | 1.11 ± 0.48 |
| DGTVGSYCMIFWELYRDNFF | -0.761 ± 1.2 |
| DHASGLVLLCLVWLGLMSLK | 0.501 ± 0.43 |
| DHGHCISPNTSYFMVDWFLK | 0.473 ± 0.39 |
| DIPYVFLLFLQECDNVFLCH | 2.54 ± 0.17 |
| DIVRWLCPHRTK | 1.23 ± 0.93 |

| Substance | amyloid nucleation score |
| --- | --- |
| DIWDTAAAPGCRCRGNS | -0.363 ± 1.5 |
| DLCFCTR | -1.37 ± 2.7 |
| DLCTNYQWFRAAYCYMSRVY | 1.2 ± 0.98 |
| DLDCFRFVLSLGDFMGRCVS | 0.266 ± 0.42 |
| DLFDFFRRRYHFRCFVSSIW | -1.52 ± 2.4 |
| DLFFIG | 0.188 ± 0.38 |
| DLILPRRLSYGYLPVLEGPS | -0.222 ± 0.76 |
| DLIRPLSCTRVLSPNFLCS | -0.54 ± 0.66 |
| DLLETKWIPSLVYKSFESLW | -0.137 ± 0.63 |
| DLLTWDCLEHDVDMLLVGPN | 0.152 ± 0.36 |
| DLRFCNASYVLWISDFAHAV | -0.08 ± 0.41 |
| DLRFSTRLGHCISVFMRKIW | inactive |
| DLSDLFLYHFVIWTSVNYSY | -0.562 ± 1.1 |
| DLSKFGKHFCLLMHYGFPNH | -0.3 ± 0.28 |
| DLSRDAIRSKSEGAVR | -1.24 ± 1.7 |
| DLWWGRVRYG | 2.64 ± 0.097 |
| DMEQAICEPSLFKIVGDNNL | -0.186 ± 0.86 |
| DMLFPAMRYAVHDVSVSAGN | 0.582 ± 0.64 |
| DMLWKRWTIYYAFYFKAWGY | 1.08 ± 0.39 |
| DMQIWFLYDCI | inactive |
| DMVEMVHCSCF | 1.49 ± 0.21 |
| DNFMSAGRLWSDSSADLIIT | 0.277 ± 0.79 |
| DNQVLCYECRGYWMQTVHVL | 0.069 ± 0.97 |
| DNRDYVALSFPRKLKWCYIS | -0.834 ± 0.25 |
